This note sets out measurements from patent US20260053904A1 (BIOATLA, published 2026).

One experiment concerns the target T1, rat EpCAM (rat, UniProt O55159 24-266, limits assumed).
T1 sequence (looked up): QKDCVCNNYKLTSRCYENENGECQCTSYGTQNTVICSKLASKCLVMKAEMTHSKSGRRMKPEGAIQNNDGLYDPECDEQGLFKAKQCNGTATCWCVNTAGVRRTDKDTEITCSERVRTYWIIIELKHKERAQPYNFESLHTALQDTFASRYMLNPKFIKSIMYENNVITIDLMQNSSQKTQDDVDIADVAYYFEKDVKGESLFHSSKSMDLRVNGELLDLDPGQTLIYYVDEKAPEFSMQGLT
The experiment in a line: hybridoma screening, ELISA. On the technique in general: In an ELISA, binding on a coated surface is turned into a signal by an enzyme label.

Another experiment concerns the target T2, mouse EpCAM (mouse, UniProt Q99JW5 24-266).
T2 construct: extracellular domain; also called mouse EpCAM-ECD
T2 sequence (looked up): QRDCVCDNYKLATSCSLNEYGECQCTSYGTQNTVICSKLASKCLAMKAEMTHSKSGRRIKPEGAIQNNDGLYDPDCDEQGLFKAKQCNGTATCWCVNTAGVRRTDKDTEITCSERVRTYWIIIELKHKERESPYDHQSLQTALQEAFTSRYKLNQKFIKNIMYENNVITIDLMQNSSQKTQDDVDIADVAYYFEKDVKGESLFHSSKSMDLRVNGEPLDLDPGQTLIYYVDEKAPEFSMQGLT
The experiment in a line: hybridoma screening, ELISA.

Experiment [1] concerns the target T3, cyno EpCAM (recombinant, ELISA antigen) (cynomolgus monkey).
T3 construct: extracellular domain; also called cynomolgus EpCAM extracellular domain
The experiment in a line: ELISA, cyno EpCAM, pH 7.4. The procedure:
(§1) The binding activities of the humanized conditionally active anti-EpCAM antibodies to cyno EpCAM were similarly measured. The EC50 for binding to the cyno EpCAM at pH 6.0 and pH 7.4 for the humanized conditionally active anti-EpCAM antibodies are summarized in Table 7.
(§2) The ELISA assay was performed using the following protocol: [0388] 1) Coat ELISA plates with 100 μL of 0.5 μg/mL (06_20_17 and 06_28_17 Experiments) or 1 μg/mL (07_06_17 and 07_11_17 Experiments) recombinant EpCAM antigen in carbonate-bicarbonate coating buffer [0389] 2) Cover plates with sealing film and incubate overnight at 4° C. [0390] 3) Decant plates and tap out residual liquid on a stack of paper towels [0391] […] 5) Add 200 μL of various pH incubation buffers to the wells according to the sample map.

Experiment [2] has as its target T4, cyno EpCAM expressed on 293 cells (cynomolgus monkey).
T4 construct: whole, on cells; also called 293 cells expressing cyno EpCAM
The experiment in a line: FACS on 293 cells expressing cyno EpCAM, pH 6.0. The procedure:
(§3) A similar FACS analysis was also carried out using 293 cells expressing cyno EpCAM. […] The EC50 values for binding to the 293 cells expressing cyno EpCAM by the humanized conditionally active anti-EpCAM antibodies are summarized in Table 11.

Experiment [3] addresses T3, cyno EpCAM (recombinant, ELISA antigen). Nature of the experiment: ELISA with pH titration, cyno EpCAM. The procedure:
The binding activities of the humanized conditionally active anti-EpCAM antibodies to cyno EpCAM with pH titration was similarly measured by ELISA.
as §2

Experiment [4] deals with T5, recombinant human EpCAM extracellular domain (human, UniProt P16422 24-265).
T5 construct: extracellular domain; Plate-coated antigen of the ELISAs; also called human EpCAM ECD; recombinant EpCAM antigen
T5 sequence (looked up): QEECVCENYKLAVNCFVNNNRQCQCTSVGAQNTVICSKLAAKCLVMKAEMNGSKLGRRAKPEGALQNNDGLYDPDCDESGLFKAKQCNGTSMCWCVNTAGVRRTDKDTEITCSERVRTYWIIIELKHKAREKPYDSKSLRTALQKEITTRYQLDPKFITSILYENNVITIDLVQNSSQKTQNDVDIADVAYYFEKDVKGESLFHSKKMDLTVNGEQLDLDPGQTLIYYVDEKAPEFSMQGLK
Nature of the experiment: ELISA, human EpCAM, pH 6.0. The method, then: (§4) The binding activities of the humanized conditionally active anti-EpCAM antibodies to human EpCAM were measured by ELISA, using the template antibody BAP-1-5-01-06, as a control. The EC50 values of the humanized conditionally active anti-EpCAM antibodies for binding to human EpCAM at pH 6.0 and pH 7.4 are summarized in Table 5.
as §2

Experiment [5] addresses T6, human EpCAM expressed on cells (CHO, Colo205, 293) (human, UniProt P16422 24-314).
T6 construct: whole, on cells; also called CHO cells expressing human EpCAM; Colo205 cells expressing human EpCAM
T6 sequence (looked up): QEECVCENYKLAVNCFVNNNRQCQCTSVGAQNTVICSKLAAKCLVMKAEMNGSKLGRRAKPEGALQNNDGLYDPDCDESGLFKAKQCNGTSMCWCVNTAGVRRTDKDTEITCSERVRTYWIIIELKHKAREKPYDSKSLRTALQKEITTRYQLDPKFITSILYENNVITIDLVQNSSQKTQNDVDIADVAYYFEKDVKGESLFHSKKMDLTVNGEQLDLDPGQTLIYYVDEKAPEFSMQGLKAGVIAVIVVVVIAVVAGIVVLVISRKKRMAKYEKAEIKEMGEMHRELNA
Nature of the experiment: FACS on Colo205 cells expressing human EpCAM, pH 6.0. The method, then: (§5) Binding activities of the humanized conditionally active anti-EpCAM antibodies to Colo205 cells expressing human EpCAM were measured by FACS at pH 6.0 and pH 7.4. […] The EC50 values for binding to the Colo205 cells expressing human EpCAM by the humanized conditionally active anti-EpCAM antibodies are summarized in Table 9.

Experiment [6] addresses T6, human EpCAM expressed on cells (CHO, …). The experiment in a line: FACS on 293 cells expressing human EpCAM, pH 6.0. The method, then: (§6) A similar FACS analysis was also carried out using 293 cells expressing human EpCAM. […] The EC50 values for binding to the 293 cells expressing human EpCAM by the humanized conditionally active anti-EpCAM antibodies are summarized in Table 10.

Experiment [7] deals with T4, cyno EpCAM expressed on 293 cells. Nature of the experiment: FACS on 293 cells expressing cyno EpCAM, pH 7.4. The procedure:
as §3

Experiment [8] deals with T5, recombinant human EpCAM extracellular …. The experiment in a line: ELISA, human EpCAM, pH 7.4. The procedure:
as §4, §2

The target of experiment [9] is T6, human EpCAM expressed on cells (CHO, …). Nature of the experiment: FACS on Colo205 cells expressing human EpCAM, pH 7.4. The procedure:
as §5

Experiment [10] shares this target. The experiment in a line: FACS on 293 cells expressing human EpCAM, pH 7.4. The method, then:
as §6

For experiment [11], the target named is T7, mouse EpCAM-ECD with C-terminal His-tag (expressed in CHO cells) (mouse, UniProt Q99JW5 24-266).
T7 construct: extracellular domain
T7 sequence (looked up): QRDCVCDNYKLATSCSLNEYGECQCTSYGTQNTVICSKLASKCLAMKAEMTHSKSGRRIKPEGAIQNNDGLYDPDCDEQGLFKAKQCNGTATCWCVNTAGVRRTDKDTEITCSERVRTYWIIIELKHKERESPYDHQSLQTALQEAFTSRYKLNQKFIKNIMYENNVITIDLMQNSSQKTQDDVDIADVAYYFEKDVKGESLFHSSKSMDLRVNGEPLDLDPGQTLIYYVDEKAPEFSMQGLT
Nature of the experiment: ELISA on purified His-tagged ECDs. The text has this: (§7) Human, mouse and the four chimeric EpCAM extracellular domains were expressed with a C-terminal His-tag in CHO cells and purified.

The target in experiment [12] is T8, chimeric human/mouse EpCAM-ECD 1 (Homo sapiens (Human), UniProt P16422 24-265).
T8 construct: also called ch1EpCAM-his; chimeric EpCAM-ECD 1
T8 chain: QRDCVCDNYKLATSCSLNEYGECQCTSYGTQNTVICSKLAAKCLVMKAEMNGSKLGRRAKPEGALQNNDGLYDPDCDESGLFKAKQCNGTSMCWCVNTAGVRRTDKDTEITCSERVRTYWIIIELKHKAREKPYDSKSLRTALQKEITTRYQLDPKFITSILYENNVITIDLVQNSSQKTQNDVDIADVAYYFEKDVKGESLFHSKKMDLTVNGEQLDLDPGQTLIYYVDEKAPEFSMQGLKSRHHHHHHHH
The experiment in a line: ELISA on purified His-tagged ECDs.
From the text: as §7

In experiment [13] the target is T5, recombinant human EpCAM extracellular …. The experiment in a line: ELISA with pH titration, human EpCAM. The method, then: The binding activities of the humanized conditionally active anti-EpCAM antibodies to human EpCAM with pH titration were also measured by ELISA.
as §2

Experiment [14] has as its target T3, cyno EpCAM (recombinant, ELISA antigen). The experiment in a line: ELISA, cyno EpCAM, pH 6.0. The procedure:
as §1, §2

T3 sequence (Q1WER1 24-265): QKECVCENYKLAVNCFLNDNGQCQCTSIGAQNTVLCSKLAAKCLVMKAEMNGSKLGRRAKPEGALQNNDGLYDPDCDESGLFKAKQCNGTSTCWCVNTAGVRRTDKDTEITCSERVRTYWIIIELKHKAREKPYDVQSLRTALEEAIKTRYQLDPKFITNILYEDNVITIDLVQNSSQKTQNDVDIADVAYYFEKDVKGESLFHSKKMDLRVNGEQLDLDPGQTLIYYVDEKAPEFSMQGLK
T4 sequence (Q1WER1 24-314): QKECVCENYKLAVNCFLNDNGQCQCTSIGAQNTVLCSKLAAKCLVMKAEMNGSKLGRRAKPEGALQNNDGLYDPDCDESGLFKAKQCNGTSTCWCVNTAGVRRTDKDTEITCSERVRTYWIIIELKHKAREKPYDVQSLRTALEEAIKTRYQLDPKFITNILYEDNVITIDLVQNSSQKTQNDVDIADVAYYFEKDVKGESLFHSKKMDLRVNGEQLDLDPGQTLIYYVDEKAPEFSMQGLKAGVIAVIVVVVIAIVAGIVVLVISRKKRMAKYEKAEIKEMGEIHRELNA

B1: antibody of hybridoma clone 12C10F12 (antibody, V domains shown)
VH: QVQLQQSGAELAKPGASVKVSCKASGYTFTSYWMHWVKQRPGQGLEWIGYIRPSTGYTEYNQKFKDKATLTADKSSSTAYMQLSSLTFEDSAVYYCGRGDNWVGFANWGQGTLVTVSA
VL: QIVLTQSPAIMSASLGEEIALTCSASSSISYMHWYQQKSGTSPKLLIYSTSNLASGVPSRFSGSGSGTFYSLTISSVEAEDAADYFCHQWSTYHTFGSGTKLEIK
Turning to B1, the binding result with rat EpCAM and with mouse EpCAM was “no binding” throughout.

B2: BAP-105.4-01-05 (antibody, V domains shown)
VH: EVQLVQSGAEVKKPGATVKISCKVSGYTFTSYWMHWIRQPPGKGLEWIGYIRPSTGYTEYNQKFKDRFTISRDNSKNTLYLQMNSLRAEDTAVYYCGRGDNWVGFANWGQGTLVTVSS
VL: EIVLTQSPDFQSVTPKEKVTITCSASSSISYMHWYQQKPGKAPKLLIYSTSNLASGVPDRFSGSGSGTDFTLKISRVEAEDVGVYYCHQWSTYETFGQGTKVEIK
notes: Humanized
Broadly, the EC50 is the concentration at which the effect is half-maximal. As to B2, the concentration giving a half-maximal response (EC50) in experiment [1] amounted to 7.17 µg/mL; in experiment [2], 1.6 µg/mL; in experiment [4], 0.0134 µg/mL; in experiment [5], 0.342 µg/mL; in experiment [6], 0.129 µg/mL; in [7] it was 11.6 µg/mL. Further, the EC50 in experiment [8] was 50 µg/mL; in experiment [9] it was 0.418 µg/mL; in experiment [10], 0.154 µg/mL; in [14], 0.49 µg/mL. Further, the values for the pH inflection point in experiment [3] and in experiment [13] were 6.35 pH and 6.83 pH, respectively. Also, the binding result in experiment [11] and in [12] was “no binding” in each case.
